The numbers were not newly measured in PMC6474356, which cites them from elsewhere.

A word on the Kd: it is the concentration at which binding is half-saturated.

Data set [1] deals with calmodulin (Homo sapiens) (UniProt P0DP23).
Data set [2] shares this target. This is another data set of the same source.

Read-outs that look alike come from different tables or passages of the source.

Turning to eEF-2K (from UniProt O00418), the Kd in data set [1] was 17 nM.

As to “eEF-2K CBD peptide CBD (from UniProt O00418)”, in data set [2], the Kd was 245 nM.
